# Reference: paper PMC10295924
# Target: SFB-β-catenin (UniProt P35222)
# Experiment: pull-down; HEK293T cells co-transfected with MYC-LEF1, SFB-β-catenin and OTUD7B-V5 or GFP-V5, treated with 20 mM lithium chloride for 24 h; cytoplasmic and nuclear lysates pulled down with S-protein beads; immunoblot, bands quantified with ImageJ
# Sequence of UniProt P35222 (P35222 whole entry): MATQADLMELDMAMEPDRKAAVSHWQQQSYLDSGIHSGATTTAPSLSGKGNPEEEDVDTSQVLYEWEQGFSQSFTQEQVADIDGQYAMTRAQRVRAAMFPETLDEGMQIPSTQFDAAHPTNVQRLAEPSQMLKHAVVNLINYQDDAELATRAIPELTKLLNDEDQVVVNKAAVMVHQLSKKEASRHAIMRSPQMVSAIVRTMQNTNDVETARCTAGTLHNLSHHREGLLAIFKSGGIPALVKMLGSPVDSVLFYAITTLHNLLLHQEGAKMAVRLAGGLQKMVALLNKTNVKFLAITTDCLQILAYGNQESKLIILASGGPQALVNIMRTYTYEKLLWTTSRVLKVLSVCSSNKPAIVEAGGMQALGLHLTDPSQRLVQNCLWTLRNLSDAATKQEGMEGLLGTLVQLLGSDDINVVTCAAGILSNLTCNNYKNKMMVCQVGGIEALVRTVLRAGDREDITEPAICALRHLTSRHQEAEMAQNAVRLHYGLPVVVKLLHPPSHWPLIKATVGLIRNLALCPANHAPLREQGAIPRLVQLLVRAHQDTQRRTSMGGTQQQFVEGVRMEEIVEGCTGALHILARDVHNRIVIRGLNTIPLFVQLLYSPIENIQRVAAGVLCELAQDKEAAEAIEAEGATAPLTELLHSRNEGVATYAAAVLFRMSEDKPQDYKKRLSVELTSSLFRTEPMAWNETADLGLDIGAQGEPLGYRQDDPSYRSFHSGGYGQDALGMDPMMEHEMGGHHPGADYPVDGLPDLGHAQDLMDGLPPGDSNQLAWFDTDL
substance,measurement,value
"MYC-LEF1 (Lymphoid enhancer-binding factor 1), full length (natural protein)",fold increase of β-catenin-bound LEF1 in the nucleus with OTUD7B-V5 against GFP-V5,4.82 fold
